Source: the supplement of paper PMC9170038

Tested on: MS2 coat protein
Assay: apparent KD of MS2 coat protein; designed switch direction (-1 OFF switch, 1 ON switch): -1; higher = weaker reporter binding
Method in brief: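 Each step of the titration lasted 0.8–1.5 h at the lowest concentration and 10–20 min at the highest. The protein, SNAP-549-labelled MS2 coat protein, went from 0.7 or 1.5 nM doubling to 3 µM over RNA switches transcribed on Illumina chips by stalled E. coli RNA polymerase. Normalised cluster fluorescence was curve-fitted, and the per-design median over clusters is given as apparent KD.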

[1] = input ligand: microRNA oligo, concentration not stated
[2] = Eterna round: R95, input ligand: FMN 200 uM
[3] = Eterna round: R95, input ligand: microRNA oligo, concentration not stated
[4] = Eterna round: R95, input ligand: none

Sequence: CAUCCACAUGAGGAUCACCCAUGUCAGGAUAUUGUACAAACCCAAUCAUAUUGGGCGUCAAGAAGGGACAUUCU [EX1 B.5] (Eterna round: R97, puzzle: Exclusion 1)
- apparent KD of MS2 coat protein (input ligand: FMN 200 uM): 22.8 nM
- apparent KD of MS2 coat protein (input ligand: none): 12.4 nM

Sequence: CAUGAUUGGCGAGGAUAUUGAUCUAGUUGGCGACGAGAAGGCGCCUGUCACAUGAGGAUCACCCAUGUGAAUCUGGUGGAUGAG [Ex NG1 #88] (Eterna round: R96, puzzle: Exclusion NG 1)
- apparent KD of MS2 coat protein (input ligand: FMN 200 uM): 23 nM
- apparent KD of MS2 coat protein [1]: 18.4 nM
- apparent KD of MS2 coat protein (input ligand: none): 23.5 nM

Sequence: CAUGGAACGUAGGAUAUCUCGCAGCCCGACUGCAGAGAAGGACGUACAUGAGGAUCACCCAUGUAUGAUCCAAA [Vexeoren] (puzzle: Exclusion 6)
- apparent KD of MS2 coat protein [2]: 29.2 nM
- apparent KD of MS2 coat protein [3]: 18.1 nM
- apparent KD of MS2 coat protein [4]: 23.3 nM

Sequence: CAUGGAUGUGAGCCGCAUUACAUGAGGAUCACCCAUGUCAACAAGCUUUUUGCUUAUCUUACGCGGCGGCAUCAAAA [Enisusti] (puzzle: Sensor v3, turn-off variant 1)
- apparent KD of MS2 coat protein [2]: 13.4 nM
- apparent KD of MS2 coat protein [3]: 11.8 nM
- apparent KD of MS2 coat protein [4]: 9.39 nM

Sequence: CAUGGAUGUGAGCCGCAUUACAUGAGGAUCACCCAUGUCAACAAGCUUUUUGCUUGUCUUACGCGGCGACAUCAGAA [Tiquatge] (puzzle: Sensor v3, turn-off variant 1)
- apparent KD of MS2 coat protein [2]: 11.7 nM
- apparent KD of MS2 coat protein [3]: 8.33 nM
- apparent KD of MS2 coat protein [4]: 10.1 nM

Sequence: CAUGUCCAACGAGGAUAUGGGAAAGGAAGUGUACCAGAAGGCGUACGGACAUGAGGAUCACCCAUGUCGCGCGGUGCGAUGUGG [MOD2 Nando EXNG 1.1] (Eterna round: R96, puzzle: Exclusion NG 1)
- apparent KD of MS2 coat protein (input ligand: FMN 200 uM): 112 nM
- apparent KD of MS2 coat protein [1]: 39.1 nM
- apparent KD of MS2 coat protein (input ligand: none): 98.9 nM

Sequence: CAUUACUACAAGCUUGGGAACAUGAGGAUCACCCAUGUUCGUCUUAUUGAUCUAGGUACGCUGACGUACCUAGAUCU [JL-sv1-2.24 Brourd mod] (puzzle: Sensor v3, turn-off variant 1)
- apparent KD of MS2 coat protein [2]: 14.3 nM
- apparent KD of MS2 coat protein [3]: 21.7 nM
- apparent KD of MS2 coat protein [4]: 13.3 nM

Sequence: CAUUACUGCAAGCUAUGGGACAUGAGGAUCACCCAUGUUCGUCUUAUUGAUCUAGGUACGCUGACGUACCUAGAUCU [JL-sv1-2.21 Brourd mod] (puzzle: Sensor v3, turn-off variant 1)
- apparent KD of MS2 coat protein [2]: 16.3 nM
- apparent KD of MS2 coat protein [3]: 21.4 nM
- apparent KD of MS2 coat protein [4]: 15 nM

Sequence: CCAAGCUUAUUCAUUAACAACAUGAGGAUCACCCAUGUAUAGGCAAUUAUGUUUGGGCUCUUUAGUGCUCGUCUUAU [Sensor-V1 #23] (Eterna round: R97, puzzle: Sensor, turn-off variant 1)
- apparent KD of MS2 coat protein (input ligand: FMN 200 uM): 16.1 nM
- apparent KD of MS2 coat protein (input ligand: none): 15.5 nM

Sequence: CCAAGCUUAUUCAUUAACCACAUGAGGAUCACCCAUGUAUAGGCAAUUAUGACUGGGCCAUCUGGUGCUCGUCUUAU [Sensor-V1 #29] (Eterna round: R97, puzzle: Sensor, turn-off variant 1)
- apparent KD of MS2 coat protein (input ligand: FMN 200 uM): 16.2 nM
- apparent KD of MS2 coat protein (input ligand: none): 15.2 nM

Sequence: CCACGACAUGAGGAUCACCCAUGUGAGGAUAUGACCUGAAAAGCGUGAGCAGUUUGUAUCAGAAGGCGCGUAGG [salish99_ex1_r4_067] (Eterna round: R97, puzzle: Exclusion 1)
- apparent KD of MS2 coat protein (input ligand: FMN 200 uM): 35.9 nM
- apparent KD of MS2 coat protein (input ligand: none): 44.2 nM

Sequence: CCACUGUCAGGAUAUCGUGCAUACAACGAAAGUUCUAUGUGCGAGAAGGGACAUGAGGAUCACCCAUGUAAACG [Omei Ex4 A28] (Eterna round: R97, puzzle: Exclusion 4)
- apparent KD of MS2 coat protein (input ligand: FMN 200 uM): 582 nM
- apparent KD of MS2 coat protein (input ligand: none): 138 nM

Sequence: CCAGGGCACAAUUAAACGCCCUAACAUGAGGAUCACCCAUGUCAGGAUAUGUAGGCAAAGACCCUACAGAAGGGACAUGUCCUA [Xegeat] (Eterna round: R96, puzzle: Exclusion NG 3)
- apparent KD of MS2 coat protein (input ligand: FMN 200 uM): 217 nM
- apparent KD of MS2 coat protein [1]: 76.1 nM
- apparent KD of MS2 coat protein (input ligand: none): 49.9 nM

Sequence: CCAUAUAACUGAGGAUAUACUCACCACUAACAUGUAGAAGGCAGACAUGAGGAUCACCCAUGUGAUUUCUCAAUAUUAUACAUC [Prohibition 75 - Jieux - Exclusion NG 1] (Eterna round: R96, puzzle: Exclusion NG 1)
- apparent KD of MS2 coat protein [1]: 500 nM

Sequence: CCAUCGAGUGUGAGGAUAUGCUGUUCCUAAGAGCAGCAGAAGGCACAUGAGGAUCACCCAUGUGGAUACGGUGG [Mat - Exclusion 4 - JL Mod - D81] (puzzle: Brourd's mod of Exclusion 4)
- apparent KD of MS2 coat protein [2]: 172 nM
- apparent KD of MS2 coat protein [3]: 29.2 nM
- apparent KD of MS2 coat protein [4]: 31.1 nM

Sequence: CCAUGAUAAGGAUAUUGAAGGUUCGACAUGAGGAUCACCCAUGUUAUGUUGGAAAAGGGACAAGAAGGUAUGAAUU [salish99_ex5_r4_220] (Eterna round: R97, puzzle: Exclusion 5)
- apparent KD of MS2 coat protein (input ligand: FMN 200 uM): 34.7 nM
- apparent KD of MS2 coat protein (input ligand: none): 35.1 nM

Sequence: CCCAGUUAUCAAGGAUAUUGUACAUGAGGAUCACCCAUGUAAUAAAUGAGGAUUUCGGGUGUCUACAAGAAGGUGAGGAUAGGC [Ostracism 15 - Jieux - Exclusion NG 2] (Eterna round: R96, puzzle: Exclusion NG 2)
- apparent KD of MS2 coat protein (input ligand: FMN 200 uM): 26.6 nM
- apparent KD of MS2 coat protein [1]: 22.4 nM
- apparent KD of MS2 coat protein (input ligand: none): 46.4 nM

Sequence: CCCAGUUAUUGAGGAUAUCCUACAUGAGGAUCACCCAUGUAAUAAAUGAGGAUUUCGGGUGUCUAGGAGAAGGCAAGGAUAGGC [Ostracism 22 - Jieux - Exclusion NG 2] (Eterna round: R96, puzzle: Exclusion NG 2)
- apparent KD of MS2 coat protein (input ligand: FMN 200 uM): 63.7 nM
- apparent KD of MS2 coat protein [1]: 39.8 nM
- apparent KD of MS2 coat protein (input ligand: none): 50.5 nM

Sequence: CCCGAUGGAUAGGAUAUCCGGCAAGUAUGCUAUGGAGAAGGGUUCACAUGAGGAUCACCCAUGUGGGUUAAACG [Eternabot (L1) Solution 74] (Eterna round: R97, puzzle: Exclusion 6)
- apparent KD of MS2 coat protein (input ligand: FMN 200 uM): 22 nM
- apparent KD of MS2 coat protein (input ligand: none): 19.3 nM

Sequence: CCCUCACAUGAGGAUCACCCAUGUCAGGAUAUCUCACAUCGGCCUUAGGCCGAUGUCUAGAGAAGGGACGUAUC [Ceonte] (puzzle: Exclusion 1)
- apparent KD of MS2 coat protein [3]: 22.9 nM

Sequence: CCCUCACUUGAGGAUCACCCAAGUCAGGAUAUCUCCCGCCCAACACCAUCCGGGCGCCAGAGAAGGGACUCAAA [Soenonor] (Eterna round: R97, puzzle: Exclusion 1)
- apparent KD of MS2 coat protein (input ligand: FMN 200 uM): 24.4 nM
- apparent KD of MS2 coat protein (input ligand: none): 17.5 nM

Sequence: CCCUGACAUGAGGAUCACCCAUGUUAGGAUAUAACAUUUGACACUACAGUGUGAAGUGUUAGAAGGGAUAUGGG [-27.9, -26.2 kcal, A 31%] (Eterna round: R97, puzzle: Exclusion 1)
- apparent KD of MS2 coat protein (input ligand: FMN 200 uM): 32.4 nM
- apparent KD of MS2 coat protein (input ligand: none): 28.7 nM

Sequence: CCGAAGUCCUGCGGAGUUCACAUGAGGAUCACCCAUGUAGGCGAGGAUAUUUAUGAUACAUGAGUAAAGAAGGCGUCUGGUAAA [Eternabot solution 26] (Eterna round: R96, puzzle: Exclusion NG 3)
- apparent KD of MS2 coat protein (input ligand: FMN 200 uM): 40.7 nM
- apparent KD of MS2 coat protein [1]: 18.2 nM
- apparent KD of MS2 coat protein (input ligand: none): 29.1 nM

Sequence: CCGCAAAUGCAGGAUAUCGUAUCGGAUACGAUACGAGAAGGGCGUACAUGAGGAUCACCCAUGUGUCCUAGCGG [Fiskers Ex 6 - 42] (puzzle: Exclusion 6)
- apparent KD of MS2 coat protein [3]: 16.6 nM

Sequence: CCGCGUGAUUAGGAUAUCAAACUAGCGUGUACAUGAGAAGGGAUCACAUGAGGAUCACCCAUGUAAGGGAUCCU [Eternabot (L1) Solution 69] (Eterna round: R97, puzzle: Exclusion 6)
- apparent KD of MS2 coat protein (input ligand: FMN 200 uM): 93.2 nM
- apparent KD of MS2 coat protein (input ligand: none): 56.1 nM

Sequence: CCGCUAAUAGGAUAUACAUGAGGAUCACCCAUGUCACUCUUCAUUGGUGUCUCUUCAAGUAGAAGGGUUGCUCA [Atisdi] (puzzle: Exclusion 3)
- apparent KD of MS2 coat protein [3]: 28.4 nM

Sequence: CCGCUCCGUGUAGGAUAUCGGUGUACCCUGCGCCGAGAAGGACAUGAGGAUCACCCAUGUAUGUUAUUAUCACGCGUGGCGCAC [Design 73] (Eterna round: R96, puzzle: Exclusion NG 1)
- apparent KD of MS2 coat protein (input ligand: FMN 200 uM): 37.7 nM
- apparent KD of MS2 coat protein [1]: 18.9 nM
- apparent KD of MS2 coat protein (input ligand: none): 37.7 nM

Sequence: CCGGAAAGGAAGGAUAUGCUAGACGAAAGUCUAGCAGAAGGUCCUACAUGAGGAUCACCCAUGUGGCCUCCCGG [Eli x6 4.09] (Eterna round: R97, puzzle: Exclusion 6)
- apparent KD of MS2 coat protein (input ligand: FMN 200 uM): 267 nM
- apparent KD of MS2 coat protein (input ligand: none): 137 nM

Sequence: CCGGAAAUAGAGGAUAUAGGACUGGAUACAGUCCUAGAAGGCUAUACAUGAGGAUCACCCAUGUGUCCUACCGG [Fiskers Ex 6 - 63] (puzzle: Exclusion 6)
- apparent KD of MS2 coat protein [3]: 14.1 nM

Sequence: CCGGAAAUGCAGGAUAUCGUAUCGGAUACGAUACGAGAAGGGUAUACAUGAGGAUCACCCAUGUGUCCUACCGG [Fiskers Ex 6 - 49] (puzzle: Exclusion 6)
- apparent KD of MS2 coat protein [3]: 18.3 nM

Sequence: CCGGAAAUGGAGGAUAUAGGAGUCGAUAGACACCUAGAAGGUCAGACAUGAGGAUCACCCAUGUGUCCUACCGG [Fiskers Ex 6 - 88] (puzzle: Exclusion 6)
- apparent KD of MS2 coat protein [3]: 14.9 nM

Sequence: CCGGAACAUGAGGAUCACCCAUGUCAGGAUAUGAAUAAAUCGUCGAUAGACGAUAAUCUCAGAAGGGACACCGG [Mat - Exclusion 1 - Eli Mod - D27] (Eterna round: R97, puzzle: Exclusion 1)
- apparent KD of MS2 coat protein (input ligand: FMN 200 uM): 24.5 nM
- apparent KD of MS2 coat protein (input ligand: none): 24.2 nM

Sequence: CCGGAAUAGCAGGAUAUAGGAGUCGAUAGACACCUAGAAGGGCUGACAUGAGGAUCACCCAUGUGUCCUACCGG [Fiskers Ex 6 - 83] (puzzle: Exclusion 6)
- apparent KD of MS2 coat protein [3]: 71.5 nM

Sequence: CCGGAAUAGCAGGAUAUAGGAGUCGAUAGACACCUAGAAGGGUUGACAUGAGGAUCACCCAUGUGUCCUACCGG [Fiskers Ex 6 - 82] (puzzle: Exclusion 6)
- apparent KD of MS2 coat protein [2]: 322 nM
- apparent KD of MS2 coat protein [3]: 247 nM
- apparent KD of MS2 coat protein [4]: 519 nM

Sequence: CCGGAAUUGCAGGAUAUAGGAGUCGAUAGACACCUAGAAGGGCAGACAUGAGGAUCACCCAUGUGUCCUACCGG [Fiskers Ex 6 - 84] (puzzle: Exclusion 6)
- apparent KD of MS2 coat protein [3]: 17.4 nM
